According to the DeepSol protein solubility set:

Test: soluble on expression in E. coli; label from the status in PepcDB or PDB records

Sequence	soluble on expression in E. coli
MNCEKCNQNPATIQLYMNINGKRVEMPLCASCYAEVRNQANFGSNEFPGASGSPFDDIFRQLSGAANQANREQRSQANAQVQTQTAGGGNGILDEFGTNLTDMAKNEQLDPVIGRDKEIKRVIEILNRRNKNNPVLIGEPGVGKTAVVEGLANAIVAGDVPSKLMNKEVILLDVASLVSGTGIRGQFEERMKQLIKELQERKNTILFIDEVHTIVGAGSAEGSMDAGNILKPALARGDLQMIGATTLKEYRTIEKDAALERRFQPVTVSEPSTKETLTILNGLKPKYEDFHEVVYSPEALTAAVELSARYIQDRHLPDKAIDLMDEVGSKYNLSIEKLDENTVSERVARLEDEKNQALQMEDYEKAAKVRDEITRLEENKTSNSFSERPVIQASDIQAIIEEKTGIPVGRLQEDEQSKMKNLERNLTGKVIGQEDAVKKVAKAIRRSRVGLKSKNRPIGSFLFVGPTGVGKTELGRTLARELFGTSEAMIRLDMSEFMEKHSISKLIGSPPGYVGHEEAGQLTEKVRRNPYSIILLDEIEKAHPDVQHMFLQILEDGRLTDSQGRTVSFKDTVIIMTSNAGATDTEASVGFNTTTETKLEKGSDILAKLGAYFKPEFLNRLDSVIEFKSLEKDDLVQIIDLMLVDLNEMLAQEGVTIDVSKEVKEHLIDLGYDPKFGARPLRRTIQEHLEDTIADSLIDQPEAKNLVATLNDNKEITITEQVTA	not soluble
MNCGPPPTLSFAAPMDITLTETRFKTGTTLKYTCLPGYVRSHSTQTLTCNSDGEWVYNTFCIYKRCRHPGELRNGQVEIKTDLSFGSQIEFSCSEGFFLIGSTTSRCEVQDRGVGWSHPLPQCEILEHHHHHH	soluble
MNDIIVLTGKVKFTITLDPGVWIFDDRKVDMDAYFSEPAPQPTEAEQEDEEIKKLSAFWDREIQEGAVFPPTLKTERRFLKEKIITGSFGMPFAPFLRNAEPHEDASELVIETEHGETVIPLEKAYDLIFAFSQNGKPLRDDGPVHIYFGDGSNREAPITHVRRLVVR	not soluble
MNDKIQKLIKKLAKECQKEDVALSLAAIDLEGEMAISQVGKGTIVAIAAHSQYTLTKEKLEQSDCDCPKHRLLKEMYGTETETTTKNTHTFVTDDPNDLMDILSKIFRGEFK	not soluble
MNDRADFVVPDITTRKNVGLSHDANDFTLPQPLDRYSAEDHATWATLYQRQCKLLPGRACDEFLEGLERLEVDADRVPDFNKLNEKLMAATGWKIVAVPGLIPDDVFFEHLANRRFPVTWWLREPHQLDYLQEPDVFHDLFGHVPLLINPVFADYLEAYGKGGVKAKALGALPMLARLYWYTVEFGLINTPAGMRIYGAGILSSKSESIYCLDSASPNRVGFDLMRIMNTRYRIDTFQKTYFVIDSFKQLFDATAPDFAPLYLQLADAQPWGAGDIAPDDLVLNAGDHQGWADTEDV	soluble
MNDTKITGGDLYDLWRVANINMPNVQAVYADACNVIHEINVANEDKFGRAHPGWAALGQIYEQCLFLTEGSLFSVAHYIDKAVKEFKEVDAEAARDLEAIFKNPNDHNPDDELTGDEKPKDVEVPNWWND	not soluble
MNDVYAEAKLNKPDFHTAYTLKKDDGGAIALGEGSTGTVTEVTDPEAIATTVVEWTVTPAEALALVKKSKTEMFATVTYESVDGTRGDITITMKASIAMPSGVIKNDQKITEAWSPDKSYVKADVKEPVTVAVTDFKLDLFDVFEGRKVVVSDVTEANFPSFTKDKLTAKFIFSGAKDVTIGTDKYTFTVTANGTQLNASKNSATATKIATIDADGIITYNKADENAHALLNKSAYNVDPFTVGIEIVVTNECDEILPLTGNKFDVKFLRPINVVDLKSAELQDATTGTAKIDMSKLLGLTDWRGQAFAVAPIDFYTYYGVTGSAISIDKDQIMTTLNASEAAPKLLKDVAPNMSINYTCDLQKIGGDITYGDLVYANGKFTINAPFKLFIPVTVKYTFGEVTSTVTLTITPTHQ	not soluble
MNEEVVMKFLHTSDWHVGRTLNGWSLLEEQEWAFQQIVDLAISEKVDGVIISGDLYDRAVPPVDAIKLFNKTLARLVLEEQIPVYAISGNHDGAERLHFGRDFFQHQGLHLSTRLEEAFEPIELENCQIFLLPFIDPIDARIYYKDDEGKEIQGIGDALTYILEDMEKAFDPDKAHVLVTHFAVSKKDDSDGQGLRELMLSETSNTVGGLTNVTSDLFKSFDYVALGHIHTRFASPTKRVQYSGSPVAFNVKEAKRKEEKGVYILELDASGDMSQTFHT	not soluble
MNELIGFVNGNSVRQKVLSLLASKGEMEGKRISKTLRVVYPTIAKTLEELEEKNLISKKEEIYFLTETGTKIEKMVQQI	not soluble
MNEVLELKEELLQIKNNNYAVPEDVDAYPYAQWMLDYIGSPDAELRDDLIYSTLHTWITNDVFRQKELRGLMLQAISPDYLFYKIGEKGTDSVFKRAFSVLIPPLILSVHEREPLLSEEQLYSVAEQVLEYVYLEEDVRGYVEGKGWAHSTAHAADALDALARTIQNREFSYAILAAVRQKVRLSDYVYVHFEDERLVKPIMSLHNQKLLTEEEWSNWLHSIATVEDIRHPQHAILVQNIRSFLRSLYFRVLETEGSTAFTDDILETLKGLRRY	not soluble
MNEVLRQEKKYLISLEDYYLLSKKFSQVMTLDSHSSDDGYTIRSLYFDSLEDVDWQEKEDGVEIRRKIRLRNYGSQSNFAKLEMKQKQGANQKKRSLKLSKTDAQALINGNNSVLLNYPDTFAAECYSRITTQLYQPKTVIEYQRKAFVAKENNIRITFDHHIIGTEASYDIFSEDLNQNYLLDPYLVILEVKYNGFLLSYIKELLDSVDRSELSASKYCLGRAVSKHYRFLEHHHHHH	not soluble
MNFDVAIIGGGLAGLTCAIALQQRGKRCVIINNGQAAIDFASGSLDLLSRMPSTTYGENRAVENLKENITALRNELPAHPYSLLGAEKVLAKAQDFERLANELHLDLIGSTEKNHWRVTGLGSLRGAWLSPNSVPTVQGNEPFPHKRIAVLGIEGYHDFQPQLLAANLVLNPQFEHCEVTSGFLNIPQLDELRKNAREFRSVNISQLLEHKLAFKDLVKEIIESAQGAEAVFLPACFGLENQEFMTALRDATKLALFELPTLPPSLLGMRQRIQLRHKFESLGGLMINGDSALNATFEGNQVRCINTRLLEDEEITADNFVLASGSFFSKGLISEFDKIYEPVFESDIIGVEGFNNKDRFTWTAHRFAHPQPYQSAGVAINAQCQVKKCGQFLTNLYAVGNVIGGFNALELGCGSGVAVVTALAVADEILAKLEHHHHHH	soluble
MNFFSLHPNVYATGRPKGLIGMLENVWVSNHTPGEGTLYLISGFSNYNGGVRFYETFTEHINQGGRVIAILGGSTSQRLSSRQVVEELLNRGVEVHIINRKRILHAKLYGTSNNLGESLVVSSGNFTGPGMSQNIEASLLLDNNTTQSMGFSWNDMISEMLNQNWHIHNMTNATDASPGWNLLYDERTTNLTLDETERVTLIVTLGHADTARIQAAPGTTAGQGTQYFWLSKDSYDFFPPLTIRNRRGTKATYSSLINMNYIDINYTDTQCRVTFEAENNFDFRLGTGKLRYTGVAKSNDIAAITRVGDSDYELRIIKQGTPEHSQLDPYAVSFIGNRGKRFGYISNEEFGRIIGVTF	soluble
MNFSIRVILLLTGFVSLAFSAPKFLTISDIHYGAENIAKDGQDTGKEFLDVTFKRFEELSQNVDFILHLGDLPTHSLFSIPKKEEYEQVVFHGLHEANPGQKPMFYITGNNDSLLGNYQPFSSDNKSPLNLALDWDGACAYCDGLIIDDTHMRKDGYYSSYVIPNNKEIILIALNSVQWTKTPVFLPKYPNQQRDAFVQLFWLEQQLKNHRAKQLLLAMHVPPGTAYNGNRFWHDIYLDRFLTLLDKYHQSYDQITILFSHSHMEEFRKIRLSDGSTIYAFSTPGISRAHHNNPGMKIFDLDKQMRVRNSTTYYTSDLYEWGNEYYQAMNTPDAIFPNCQNKTIPQCLDTLSPEQVCNNLEVGLFYGVKSTRVPYQGCIKTYQINLEHHHHHH	not soluble
MNGPIIMTREERMKIVHEIKERILDKYGDDVKAIGVYGSLGRQTDGPYSDIEMMCVMSTEEAEFSHEWTTGEWKVEVNFYSEEILLDYASQVESDWPLTHGQFFSILPIYDSGGYLEKVYQTAKSVEAQTFHDAICALIVEELFEYAGKWRNIRVQGPTTFLPSLTVQVAMAGAMLIGLHHRICYTTSASVLTEAVKQSDLPSGYDHLCQFVMSGQLSDSEKLLESLENFWNGIQEWTERHGYIVDVSKRIPF	soluble
MNHAQLRRVTAESFAHYRHGLAQLLFETVHGGASVGFMADLDMQQAYAWCDGLKADIAAGSLLLWVVAEDDNVLASAQLSLCQKPNGLNRAEVQKLMVLPSARGRGLGRQLMDEVEQVAVKHKRGLLHLDTEAGSVAEAFYSALAYTRVGELPGYCATPDGRLHPTAIYFKTLGQPT	soluble
MNHLLSMEHLSTDQIYKLIQKASQFKSGERQLPNFEGKYVANLFFENSTRTKCSFEMAELKLGLKTISFETSTSSVSKGESLYDTCKTLESIGCDLLVIRHPFNNYYEKLANINIPIANAGDGSGQHPTQSLLDLMTIYEEYGYFEGLNVLICGDIKNSRVARSNYHSLKALGANVMFNSPNAWIDDSLEAPYVNIDDVIETVDIVMLLRIQHERHGLAEETRFAADDYHQKHGLNEVRYNKLQEHAIVMHPAPVNRGVEIQSDLVEASKSRIFKQMENGVYLRMAVIDELLK	not soluble
MNHNDVLRSLRYMLKVNDAKMAEIIGLSGLEVHPLVLATYLKKEEEEGFVRCPERVMAHFLDGLVIYRRGKDESRPQQPIELPVTNNLILKKLRVAFELKEDDLHAILKSVNFPVSKPELSALFRKAGHDNYRPCGDQLMRNFLKGLTLRVRG	not soluble
MNHTSGITPLHPSIFHNILGLVALQTTRVGGVSASPLDSLNLGTHVGDDPERVRENERRLCAFLEISCESIVTTGQVHGTEIAVVTGPGKLDGYDALITTVRGLFVGILTADCYPILIYDRRTRACGAAHAGWQGTAGRIAEKTVNAMHNSFGTRPEDCLAWVGTGISGECYEIGGEVAARFSSRYLKPSPSGEGRQLLDLSAANRDQLIEAGIPPSQVQCSELCSYRDADRFFSYRRDNGKTGRMLALIGLRHSD	soluble
MNIDVEFHIRHNYPWNKLPANVRQSLGNSQREYEKQVVLYSIRNQLRYRNNLVKHVKKDERRYYEELLKYSRDHLMLYPYHLSDIVCYVCL	not soluble
MNIGVIGTGNMGTILIEAFLDSGAVKADQLVITNRTLAKAFAIQRAHPGIAVVADAAEVIKQSSLVFLCVKPLDIHPLLQQLAPHWTREHCLVSITSPISVEQLEAAVPCQIVRAIPSIANRALSGSILVTFGSRCSTTCRQTIDDLLRRIASPVYIDEAITRVASDISSCGPAFFSYLLQRFIDAAAAKTAITKEQATMLATDMIIGLGELLKRNLYTLPTLQEKVCVKGGITGEGIAVLEQRMNGVFEEVLAKTHEKFKEDVEKVKQQFS	not soluble
MNILLCCSAGMSTSLLVTKMEAAAKARGLEGKIWAVSGDAVKTNIDQADVLLLGPQVRYMLSSMKTLADERNVGIDVINPMHYGMMNGEAVLDHALTLKK	not soluble
MNIQKAHDVAPPEWLAQVREPALCPGQIIVDPHHHLWDRQGQLYLLPQFLEDQAGDHRIVSTVYVQGRAMYRAGAHALAPVGETEFARGVAAMCASGRYGETRVCDGIVAHADLTQGDGVERVLQAHVEAGGRHFKGIRHMATWDADPALMNPDVAPPPHLLGETRFRRGFAVLDRMGLVFDAWVFHPQLADVVALASAFPDTTIVLNHLGGILNTGSYAGRREAIRADWLASLRELATCPNVYLKLGGLGMRISGFDYPSRPRPPNSTELAADFAPYMLPAIDLFGPERCMFESNFPVDKRSYTYGVLWNAFKRLAADMSQAERDHLFYQTAAKAYRLNLDHIAADMAGDPLEHHHHHH	not soluble
